Experimental data reported in IntAct's records for PubMed 19197237.

Molecular target: pex14_human PEX14 (UniProt O75381)
Chain of UniProt O75381 (O75381 whole entry): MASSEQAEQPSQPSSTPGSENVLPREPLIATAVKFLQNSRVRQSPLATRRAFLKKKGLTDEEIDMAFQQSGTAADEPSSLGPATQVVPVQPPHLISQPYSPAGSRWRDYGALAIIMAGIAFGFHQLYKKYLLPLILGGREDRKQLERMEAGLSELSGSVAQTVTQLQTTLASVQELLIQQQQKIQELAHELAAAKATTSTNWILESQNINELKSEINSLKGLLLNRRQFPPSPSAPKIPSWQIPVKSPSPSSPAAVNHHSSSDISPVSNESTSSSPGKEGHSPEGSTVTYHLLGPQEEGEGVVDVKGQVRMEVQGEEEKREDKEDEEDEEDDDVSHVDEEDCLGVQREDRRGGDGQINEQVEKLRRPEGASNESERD

- effect of a mutation on the interaction: disrupting interaction
Substance: Peroxisomal targeting signal 1 receptor (Homo sapiens) (from UniProt P50542) E121D
